{
  "source": "patent US8008547B2",
  "about": "“Glyphosate-N-acetyltransferase (GAT) genes” (E.I. duPont de Nemours, priority 2000, dated 2011)",
  "molecules": {"B1": {"name": "SEQ ID NO:814: GAT variant transgene (nucleic acid)", "DNA": "ATGATAGAGGTGAAACCGATTAACGCAGAGGATACCTATGAACTAAGGCATAGAATACTCAGACCAAACCAGCCGATAGAAGCGTGTATGTTTGAAAGCGATTTACTTCGTGGTGCATTTCACTTAGGCGGCTTTTACAGGGGCAAACTGATTTCCATAGCTTCATTCCACCAGGCCGAGCACTCGGAACTCCAAGGCCAGAAACAGTACCAGCTCCGAGGTATGGCTACCTTGGAAGGTTATCGTGAGCAGAAAGCGGGATCAACTCTAGTTAAACACGCTGAAGAAATCCTTCGTAAGAGGGGGGCGGACATGCTTTGGTGTAATGCGCGGACATCCGCCTCAGGCTACTACAAAAAGTTAGGCTTCAGCGAGCAGGGAGAGATATTTGACACGCCGCCAGTAGGACCTCACATCCTGATGTATAAAAGGATCACATAA", "modifications": "Synthetic DNA Sequence; CDS (1)...(441); 18-28D9b", "notes": "GAT variant transgene"}, "B2": {"name": "SEQ ID NO:202: GAT variant transgene (nucleic acid)", "DNA": "ATGCTAGAGGTGAAACCGATTAACGCAGAGGATACCTATGAACTAAGGCATAGAATACTCAGACCAAACCAGCCGATAGAAGCGTGTATGTTTGAAAGCGATTTACTTCGTGGTGCATTTCACTTAGGCGGCTTTTACAGGGGCAAACTGATTTCCATAGCTTCATTCCACCAGGCCGAGCACTCAGAACTCCAAGGCCAGAAACAGTACCAGCTCCGAGGTATGGCTACCTTGGAAGGTTATCGTGAGCAGAAAGCGGGATCGAGTCTAATTAGACACGCTGAAGAAATTCTTCGTAAGAGGGGGGCGGACATGCTTTGGTGTAATGCGCGGACATCCGCCTCAGGCTACTACAAAAAGTTAGGCTTCAGCGAGCAGGGAGAGATATTTGAAACGCCGCCAGTAGGACCTCACATCCTGATGTATAAAAGGCTCACATAA", "modifications": "Synthetic DNA Sequence; 10_4F2", "notes": "GAT variant transgene"}, "B3": {"name": "YitI: most closely related sequence available in Genbank, yitI from Bacillus subtilis (protein, UniProt O06744 1-149, looked up)", "Uncharacterized …": "MLEVKTISVEDTYEIRHRILRPHQSIEQCKYKEDHAEGSFHLGVFYDGTLISIASFSPQSQPLLTEASAYRLRGMATLEGYRDQKAGSTLIKHAEHKLAESGVQAVWCNARHHVKGYYAKLGWKELGEPFDIPGIGNHIVMYKTLRTSR"}, "B4": {"name": "SEQ ID NO:7: GAT enzyme isolated from a strain of B. licheniformis (strain B6) (protein)", "chain": "MIEVKPINAEDTYEIRHRILRPNQPLEACKYETDLLGGTFHLGGYYRDRLISIASFHQAEHSELEGQKQYQLRGMATLEGYREQKAGSTLIRHAEELLRKKGADLLWCNARTSVSGYYKKLGFSEQGGVYDIPPIGPHILMYKKLT", "modifications": "Unidentified microorganism derived from soil sample.; B6 GAT"}, "B5": {"name": "SEQ ID NO:549: GAT variant transgene (nucleic acid)", "DNA": "ATGATAGAGGTGAAACCGATTAACGCAGAGGATACCTATGAACTAAGGCATAGAATACTCAGACCAAACCAGCCGATAGAAGCGTGTATGTTTGAAAGCGATTTACTTCGTGGTGCATTTCACTTAGGCGGCTATTACGGGGGCAAACTGATTTCCATAGCTTCATTCCACCAGGCCGAGCACTCAGAACTCCAAGGCCAGAAACAGTACCAGCTCCGAGGTATGGCTACCTTGGAAGGTTATCGTGAGCAGAAGGCGGGATCGAGTCTAATTAAACACGCTGAAGAAATTCTTCGTAAGAGGGGGGCGGACTTGCTTTGGTGTAATGCGCGGACATCCGCCTCAGGCTACTACAAAAAGTTAGGCTTCAGCGAGCAGGGAGAGGTATTCGACACGCCGCCAGTAGGACCTCACATCCTGATGTATAAAAGGATCACATAA", "modifications": "Synthetic DNA Sequence; D_S00260796_17-15H3", "notes": "GAT variant transgene"}},
  "key": {"maize plants [1]": {"system": "maize plants", "experiment": "T1 field glyphosate spray of maize expressing GAT transgenes", "format": "in vivo", "settings": "0×, 4×, 8×, and 4×+4× sprays at V3 and V8; scored 10 days after treatment", "experimental": "Maize plants expressing GAT variant transgenes 18-28D9b (SEQ ID NO:814) and 17-15H3 (SEQ ID NO:549) were produced using the methods described in Example 13. T1 plants were used for the generation of glyphosate field-tolerance data. The T1 plants were treated in the field with four different glyphosate spray treatments (0×, 4×, 8×, and 4×+4×) for each event. The plants were sprayed at V3 and V8. Plants were scored 10 days after treatment for leaf discoloration and plant height comparisons as described in Example 13. […] T2 seeds were collected for further studies."}, "maize plants [2]": {"system": "maize plants", "experiment": "Effect of temperature variation on glyphosate tolerance of T1 maize expressing GAT transgenes", "format": "in vivo", "settings": "cool/cold, warm and hot conditions; 0×, 4×, 6×, 8× at V2; scored at 5 and 14 days", "experimental": "Maize plants expressing GAT variant transgenes 10—4F2 (SEQ ID NO:202), 17-15H3 (SEQ ID NO:549), and 18-28D9b (SEQ ID NO:814) were produced using the methods described in Example 13. The effect of temperature on glyphosate tolerance was evaluated in T1 plants. The T1 plants were grown in cool/cold (day 14° C., night 8° C.), warm (day 28° C., night 20° C.), and hot (day 37° C., night 20° C.) conditions. T1 plants were sprayed at V2 with four different glyphosate spray treatments (0×, 4×, 6×, and 8×). Plants were scored at 5 and 14 days after treatment for leaf discoloration and plant height comparisons as described in Example 13."}, "[3]": {"experiment": "GAT activity (acetylation of glyphosate), general statements", "format": "biochemical", "settings": "native YitI of Bacillus subtilis", "excerpt": "As used herein, the term “glyphosate-N-acetyltransferase activity” or “GAT activity” refers to the ability to catalyze the acetylation of the secondary amine group of glyphosate, as illustrated, for example, in FIG. 1. A “glyphosate-N-acetyltransferase” or “GAT” is an enzyme that catalyzes the acetylation of the amine group of glyphosate, a glyphosate analog, and/or a glyphosate primary metabolite (i.e., AMPA or sarcosine). In some preferred embodiments of the invention, a GAT is able to transfer the acetyl group from Acetyl CoA to the secondary amine of glyphosate and the primary amine of AMPA. […] The exemplary GATs described herein are active from pH 5-9, with optimal activity in the range of pH 6.5-8.0. Activity can be quantified using various kinetic parameters which are well known in the art, e.g., kcat, KM, and kcat/KM. These kinetic parameters can be determined as described below in Example 7."}, "[4]": {"experiment": "Apparent KM for glyphosate of purified GAT from B. licheniformis strain B6 (spectrophotometric, 235 nm)", "format": "biochemical", "settings": "200 μM Acetyl CoA, 1 μM purified GAT, pH 7.7, 20% ethylene glycol", "excerpt": "Hyperbolic saturation kinetics were observed (FIG. 5), from which an apparent KM of 2.9±0.2 (SD) mM was obtained."}, "[5]": {"experiment": "KM for Acetyl CoA by mass spectrometric detection of N-acetyl glyphosate", "format": "biochemical", "settings": "for Km: read-out: apparent KM for Acetyl CoA, 5 mM glyphosate, 0.19 μM GAT, pH 7.7, 50% methanol", "experimental": "Initial reaction rates were determined using mass spectrometric detection of N-acetyl glyphosate. Five μl were repeatedly injected into the instrument and reaction rates were obtained by plotting reaction time vs. area of the integrated peak (FIG. 6). Hyperbolic saturation kinetics were observed (FIG. 7), from which an apparent KM of […] μM was derived.\nKM for Acetyl CoA was measured using the mass spectrometry method with repeated sampling during the reaction. AcetylCoA and glyphosate (ammonium salts) were placed as 50-fold-concentrated stock solutions into a well of a mass spectrometry sample plate. Reactions were initiated with the addition of enzyme appropriately diluted in a volatile buffer such as morpholine acetate or ammonium carbonate, pH 6.8 or 7.7. The sample was repeatedly injected into the instrument and initial rates were calculated from plots of […] and peak area. KM was calculated as for glyphosate."}, "[6]": {"experiment": "Transfer of the propionyl group from propionyl CoA to glyphosate (DTNB)", "format": "biochemical", "settings": "1 mM propionyl CoA, 5 mM glyphosate or no glyphosate, 30 minutes", "experimental": "The ability of GAT variants (B6 (SEQ ID NO:7), 0—6D10 (SEQ ID NO:448), 17-15H3 (SEQ ID NO:601), and 20-8H12 (SEQ ID NO:816)) to transfer the propionyl group from propionyl CoA to glyphosate was tested in reaction mixtures containing 5 mM glyphosate or no glyphosate. Propionyl CoA was present at 1 mM. After 30 minutes the reactions were terminated and the presence of free […] was determined by the addition of DTNB."}},
  "data": [
    {"molecule": "B1", "values": [
      {"measurement": "T1 field glyphosate tolerance", "setting": "maize plants [1]", "result": "correlated well with the results previously obtained in the greenhouse"},
      {"measurement": "effect of temperature on glyphosate tolerance", "setting": "maize plants [2]", "result": "glyphosate tolerance is not adversely effected by the range of temperatures tested"}
    ]},
    {"molecule": "B2", "values": [
      {"measurement": "effect of temperature on glyphosate tolerance", "setting": "maize plants [2]", "result": "glyphosate tolerance is not adversely effected by the range of temperatures tested"}
    ]},
    {"molecule": "B3", "values": [
      {"measurement": "GAT activity", "setting": "[3]", "result": "detectable GAT activity"}
    ]},
    {"molecule": "B4", "values": [
      {"measurement": "Km", "setting": "[4]", "result": "~2900", "unit": "µM"},
      {"measurement": "Km", "setting": "[4]; listed as B6", "result": "2900 ± 200", "unit": "µM"},
      {"measurement": "Kcat", "setting": "[5]; calculated from Vmax at a known concentration of enzyme", "result": 0.1, "unit": "s⁻¹"},
      {"measurement": "Km", "setting": "[5]", "result": "~2", "unit": "µM"},
      {"measurement": "Km", "setting": "[5]; listed as B6", "result": 2, "unit": "µM"},
      {"measurement": "transfer of propionyl group to glyphosate", "setting": "[6]", "result": "glyphosate-dependent hydrolysis of propionyl CoA"}
    ]},
    {"molecule": "B5", "values": [
      {"measurement": "T1 field glyphosate tolerance", "setting": "maize plants [1]", "result": "correlated well with the results previously obtained in the greenhouse"},
      {"measurement": "effect of temperature on glyphosate tolerance", "setting": "maize plants [2]", "result": "glyphosate tolerance is not adversely effected by the range of temperatures tested"}
    ]}
  ]
}
